The record followed here is patent USRE49477 (THOMAS JEFFERSON UNIVERSITY, dated 2023).

Experiment [1] addresses T1, human procollagen I α2 chain (human, UniProt P08123 23-1366).
T1 construct: The separated chain as it stood on the Western blot membrane; With the chimeric IgG, a partially degraded form was also positive; also called Pro-α2; collagen α2-chain
Put plainly: Western blot, procollagen I chains on membrane, anti-FLAG-HRP detection. On the technique in general: Immunoblotting shows a protein as a band on a membrane.

Experiment [2] addresses T1, human procollagen I α2 chain. Description: Western blot, procollagen I chains on membrane, anti-His-HRP detection.
Experiment [3] has the same target. Description: Western blot, procollagen I chains on membrane, anti-human γ-HRP detection.

T1 sequence (P08123 23-1366 limits assumed): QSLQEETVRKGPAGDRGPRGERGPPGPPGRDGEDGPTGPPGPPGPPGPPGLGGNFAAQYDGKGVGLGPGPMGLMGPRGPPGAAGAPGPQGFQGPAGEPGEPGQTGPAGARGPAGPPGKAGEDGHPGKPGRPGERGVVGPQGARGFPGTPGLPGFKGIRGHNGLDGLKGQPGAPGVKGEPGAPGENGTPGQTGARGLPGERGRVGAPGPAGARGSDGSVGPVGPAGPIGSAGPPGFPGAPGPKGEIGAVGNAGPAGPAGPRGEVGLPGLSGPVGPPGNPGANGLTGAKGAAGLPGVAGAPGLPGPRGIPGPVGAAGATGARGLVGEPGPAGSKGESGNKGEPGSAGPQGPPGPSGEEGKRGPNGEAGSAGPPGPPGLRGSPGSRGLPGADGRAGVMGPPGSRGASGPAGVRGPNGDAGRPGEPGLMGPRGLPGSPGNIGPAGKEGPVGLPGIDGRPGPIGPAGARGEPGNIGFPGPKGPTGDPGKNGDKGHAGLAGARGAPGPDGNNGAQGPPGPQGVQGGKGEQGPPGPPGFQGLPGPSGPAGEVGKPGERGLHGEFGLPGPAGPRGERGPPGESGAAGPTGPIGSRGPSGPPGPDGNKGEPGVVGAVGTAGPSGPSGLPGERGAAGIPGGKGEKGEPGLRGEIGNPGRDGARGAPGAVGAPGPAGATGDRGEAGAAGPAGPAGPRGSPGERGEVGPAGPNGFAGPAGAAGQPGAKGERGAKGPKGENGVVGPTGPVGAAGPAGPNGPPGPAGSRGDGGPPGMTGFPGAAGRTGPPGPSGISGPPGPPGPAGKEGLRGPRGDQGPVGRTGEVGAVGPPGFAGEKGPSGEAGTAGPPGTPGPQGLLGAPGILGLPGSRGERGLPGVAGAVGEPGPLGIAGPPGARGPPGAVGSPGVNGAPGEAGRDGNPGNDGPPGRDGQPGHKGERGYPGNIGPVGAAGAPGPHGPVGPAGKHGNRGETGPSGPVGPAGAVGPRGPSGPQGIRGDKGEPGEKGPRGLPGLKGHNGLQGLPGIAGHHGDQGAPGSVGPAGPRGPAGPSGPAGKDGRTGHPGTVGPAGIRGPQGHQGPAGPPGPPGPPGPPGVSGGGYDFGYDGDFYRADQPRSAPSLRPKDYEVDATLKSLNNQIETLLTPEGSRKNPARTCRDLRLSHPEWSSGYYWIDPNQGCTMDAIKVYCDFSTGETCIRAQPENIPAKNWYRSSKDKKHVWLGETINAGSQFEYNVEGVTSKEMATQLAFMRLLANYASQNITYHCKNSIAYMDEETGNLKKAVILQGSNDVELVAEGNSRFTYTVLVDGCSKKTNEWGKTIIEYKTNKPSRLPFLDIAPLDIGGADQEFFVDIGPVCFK

B1: bacterial-derived scFv variant (anti-α2Ct single chain antibody, FLAG-tagged) (scFv)
scFv: MDIVMSQSPSSLAVSAGEKVTMSCKSSQSLLNSRTRKNNLAWYQQKPGQSPKLLIYWASTRESGVPDRFTGSGSGTDFTLTISSVQAEDLAVYYCKQSYNLWTFGGGTKLEIKVDGGGGSGGGGSGGGGSLEQIQLVQSGPELKKPGETVKISCKASGYTFTDYPLHWVKQAPGKGLQWMAWINTETGEPTYADDFTGRFAFSLETSASTAYLQINNLKNEDTATYFCVRGYYYYWGQGTTLSVSSDYKDDDDK
For B1, in experiment [1], the binding result is “binds”.

B2: His-tagged yeast-derived A_L_K scFv variant (scFv)
scFv: QIQLVQSGPELKKPGETVKISCKASGYTFTDYPLHWVKQAPGKGLQWMAWINTETGEPTYADDFTGRFAFSLETSASTAYLQINNLKNEDTATYFCVRGYYYYWGQGTTLSVSSGGGGSGGGGSGGGGSGGGGSGGGGSGGGGSDIVMSQSPSSLAVSAGEKVTMSCKSSQSLLNSRTRKNNLAWYQQKPGQSPKLLIYWASTRESGVPDRFTGSGSGTDFTLTISSVQAEDLAVYYCKQSYNLWTFGGGTKLEIKRHHHHHH
notes: It was secreted from yeast using pPIC-9K; also called yeast scFv variant
In the case of B2, the binding result in experiment [2] is on record as “binds”.

B3: mouse-human chimeric IgG consisting of the mVH-hγ and mVL-hκ chains (antibody, V domains shown)
VH: QIQLVQSGPELKKPGETVKISCKASGYTFTDYPLHWVKQAPGKGLQWMAWINTETGEPTYADDFTGRFAFSLETSASTAYLQINNLKNEDTATYFCVRGYYYYWGQGTTLSVSS
VL: DIVMSQSPSSLAVSAGEKVTMSCKSSQSLLNSRTRKNNLAWYQQKPGQSPKLLIYWASTRESGVPDRFTGSGSGTDFTLTISSVQAEDLAVYYCKQSYNLWTFGGGTKLEIKR
notes: The constant regions are human IgG1 γ (pFUSE-CHIg-hG1) and human κ (pFUSE2-CLIg-hk); The antibody was expressed in CHO cells and purified on Protein-L; also called chimeric antibody; CHO-IgG
For the molecule B3, in experiment [3], the binding result was “binds”.
